# Results from PMC5594493, “Antiproliferative factor (APF) binds specifically to sites within the cytoskeleton-associated protein 4 (CKAP4) extracellular domain” (BMC Biochemistry, 2017).
# T1: CKAP4_127–360 (Homo sapiens, UniProt Q07065)
# T1 construct: amino acids 106–602, 127–360, 361–524, and 525–602 regions were generated by PCR and subcloned into the pET-15b bacterial expression vector; His-tag; made in house; host or cells: E. coli BL21(DE3)pLysS
# T1 sequence (Q07065 127-360): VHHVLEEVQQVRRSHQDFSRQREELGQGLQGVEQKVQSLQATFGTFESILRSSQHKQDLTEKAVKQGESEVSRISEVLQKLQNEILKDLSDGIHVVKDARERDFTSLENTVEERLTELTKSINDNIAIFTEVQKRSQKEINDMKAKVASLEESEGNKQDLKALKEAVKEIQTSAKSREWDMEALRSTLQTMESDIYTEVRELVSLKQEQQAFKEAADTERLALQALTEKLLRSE
# T2: CKAP4_361–524 (Homo sapiens, UniProt Q07065)
# T2 construct: amino acids 106–602, 127–360, 361–524, and 525–602 regions were generated by PCR and subcloned into the pET-15b bacterial expression vector; His-tag; made in house; host or cells: E. coli BL21(DE3)pLysS
# T2 sequence (Q07065 361-524): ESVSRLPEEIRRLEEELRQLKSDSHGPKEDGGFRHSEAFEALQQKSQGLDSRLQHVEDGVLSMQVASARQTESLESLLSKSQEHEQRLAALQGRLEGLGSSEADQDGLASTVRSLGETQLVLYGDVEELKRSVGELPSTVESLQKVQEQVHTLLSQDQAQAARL
# T3: CKAP4_525–602 (Homo sapiens, UniProt Q07065)
# T3 construct: amino acids 106–602, 127–360, 361–524, and 525–602 regions were generated by PCR and subcloned into the pET-15b bacterial expression vector; His-tag; made in house; host or cells: E. coli BL21(DE3)pLysS
# T3 sequence (Q07065 525-602): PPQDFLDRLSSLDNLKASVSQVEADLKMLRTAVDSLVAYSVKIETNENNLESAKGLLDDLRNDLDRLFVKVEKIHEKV
# T4: CKAP4_(127–360) (UniProt Q07065 127-360)
# T4 chain: T1 sequence (Q07065 127-360)
# Legend:
# [1] = target: T1, CKAP4_127–360; experiment: SPR binding kinetics, CKAP4_127–360 immobilized on CM5; conditions: CM5 amine-coupling
# Protocol: (§1) All SPR experiments were performed on a Biacore X-100 instrument (GE Healthcare) with the chip surface at 25 °C using PBS containing 0.01% Tween-20 as running buffer. CKAP4 recombinant proteins were immobilized individually either by Ni^2+/nitrilotriacetic acid (NTA) chelation on Sensor Chip NTA or by amine-coupling on Sensor Chip CM5, on the Fc2 channel. For amine-coupling, the sensor surface on both flow cells was activated for 7 min with a 1:1 mixture of 0.1 M EDC (1-ethyl-3-(3-dimethylaminopropyl) carbodiimide hydrochloride) and 0.1 M NHS (N-hydroxysuccinimide) at a flow rate of 5 μl/min. Immobilization of CKAP4 proteins (on Fc2) was performed in 10 mM sodium acetate buffer, at either pH 4.5, 5.0, or 5.5 based on preliminary pH scouting runs, for optimal binding. […] The data were analyzed using Biacore Evaluation software V2.0. […]
# (§2) To assess the as-APF binding activity of the purified CKAP4 deletion mutants, each protein was separately immobilized on a CM5 sensor chip through amine coupling, and SPR responses against APF control peptide and various as-APF concentrations were observed. We used this reverse approach to assess as-APF binding kinetics because the concentration of as-APF synthetic peptide could be calculated more accurately than the purified CKAP4 deletion mutants, which vary in amino acid composition. […]
# [2] = system: CKAP4; experiment: SPR binding to CKAP4 recombinant proteins (overall statements); conditions: comparison of as-APF, APF and control peptide
# Protocol: as §1, with “binding. Unreacted NHS groups were quenched with a 7 min injection of 1 M ethanolamine pH 8.5. The Fc1 channel was treated similarly but without CKAP4 and served as a reference. Upon stabilization of the baseline signal, multi-cycle kinetics assays were performed with injections of as-APF as analyte at various concentrations (2.5–40 μM) in running buffer at 30 μl/min for 2 min, immediately followed by a 3 min dissociation phase.” for “binding.”
# [3] = target: T2, CKAP4_361–524; experiment: SPR binding kinetics, CKAP4_361–524 immobilized on CM5; conditions: CM5 amine-coupling
# Protocol: as §1, §2
# [4] = target: T3, CKAP4_525–602; experiment: SPR binding kinetics, CKAP4_525–602 immobilized on CM5; conditions: CM5 amine-coupling
# Protocol: as §1, §2
# [5] = target: CKAP4_(361–524) (UniProt Q07065); experiment: SPR; CKAP4 deletion mutant amine-coupled on Fc2 of a CM5 chip (352, 585, 1914 RU), Fc1 blank reference; multi-cycle kinetics with as-APF 2.5–40 μM, 30 μl/min, 2 min association, 3 min dissociation; 25 °C, PBS with 0.01% Tween-20; heterogeneous ligand, 1:1 or two-state fit
# [6] = target: T4, CKAP4_(127–360); experiment: as above
# [7] = target: CKAP4_(525–602) (UniProt Q07065); experiment: as above
# [8] = target: T4, CKAP4_(127–360); experiment: SPR; heterogeneous ligand fit, KD1
molecule,measurement,setting,value
TVPAAVVVA [APF control peptide],specific binding,[1],no specific binding was detected
same,binding to CKAP4 (in words),[2],no binding response
same,specific binding,[3],no specific binding was detected
same,specific binding,[4],no specific binding was detected
"as-APF (asialo APF, Galβ1−3GalNAcα-O-…) (peptide)",Kd,[5],2.3 µM
same,stoichiometry N,[5],1
same,KD1 (heterogeneous ligand fit),[6],4.61 µM
same,KD2 (heterogeneous ligand fit),[6],0.66 nM
same,stoichiometry N,[6],7.1
same,Kd,[7],197 µM
same,stoichiometry N,[7],1.5
"TVPAAVVVA (Galβ1−3GalNAcα-O- disaccharide on the N-terminal threonine) [as-APF (asialo APF, Galβ1−3GalNAcα-O-TVPAAVVVA)]",Kd,[8],4.6 µM
